How the values were obtained:
VvEG16 [1] = target: T1, VvEG16 (Vitis vinifera, UniProt F6I323, E88A/DEL151-151); assay: X-ray crystallography, […] Å; format: binding; details: alpha-anomer, negative subsites of chain A
VvEG16 [2] = target: T1, VvEG16; assay: X-ray crystallography, […] Å; format: binding; details: negative subsites of chain A; from tXyGO mixture
VvEG16 [3] = target: VvEG16 (Vitis vinifera, UniProt F6I323, C21S/DEL151-151/C188S); assay: X-ray crystallography, […] Å; format: binding; details: co-crystallised with 5 mM; negative subsites
[4] = substrate: O=[N+]([O-])c1ccc(O[C@@H]2O[C@H](CO)[C@@H](O[C@@H]3O[C@H](CO)[C@@H](O[C@@H]4O[C@H](CO)[C@@H](O)[C@H](O)[C@H]4O)[C@H](O)[C@H]3O)[C@H](O)[C@H]2O)c(Cl)c1; assay: chromogenic substrate hydrolysis, CNP release; format: biochemical, Vitis vinifera; details: 20 mM sodium citrate, pH 6, 30°C
[5] = substrate: O=[N+]([O-])c1ccc(O[C@@H]2O[C@H](CO)[C@@H](O[C@@H]3O[C@H](CO[C@H]4OC[C@@H](O)[C@H](O)[C@H]4O)[C@@H](O[C@@H]4O[C@H](CO[C@H]5OC[C@@H](O)[C@H](O)[C@H]5O)[C@@H](O[C@@H]5O[C@H](CO[C@H]6OC[C@@H](O)[C@H](O)[C@H]6O)[C@@H](O)[C@H](O)[C@H]5O)[C@H](O)[C@H]4O)[C@H](O)[C@H]3O)[C@H](O)[C@H]2O)c(Cl)c1; assay: chromogenic substrate hydrolysis, CNP release; format: biochemical, Vitis vinifera; details: 20 mM sodium citrate, pH 6, 30°C
[6] = substrate: O=[N+]([O-])c1ccc(O[C@@H]2O[C@H](CO)[C@@H](O[C@@H]3O[C@H](CO)[C@@H](O)[C@H](O)[C@H]3O)[C@H](O)[C@H]2O)c(Cl)c1; assay: chromogenic substrate hydrolysis, CNP release; format: biochemical, Vitis vinifera; details: 20 mM sodium citrate, pH 6, 30°C
[7] = substrate: O=[N+]([O-])c1ccc(O[C@@H]2O[C@H](CO)[C@@H](O[C@@H]3O[C@H](CO)[C@@H](O)[C@H](O)[C@H]3O)[C@H](O)[C@H]2O)cc1; assay: chromogenic substrate hydrolysis, PNP release; format: biochemical, Vitis vinifera; details: 20 mM sodium citrate, pH 6, 30°C
[8] = substrate: O=[N+]([O-])c1ccc(O[C@@H]2O[C@H](CO)[C@@H](O[C@@H]3O[C@H](CO)[C@@H](O[C@@H]4O[C@H](CO)[C@@H](O)[C@H](O)[C@H]4O)[C@H](O)[C@H]3O)[C@H](O)[C@H]2O)cc1; assay: chromogenic substrate hydrolysis, PNP release; format: biochemical, Vitis vinifera; details: 20 mM sodium citrate, pH 6, 30°C
purified protein [9] = substrate: O=[N+]([O-])c1ccc(O[C@@H]2O[C@H](CO)[C@@H](O[C@@H]3O[C@H](CO)[C@@H](O)[C@H](O)[C@H]3O)[C@H](O)[C@H]2O)c([N+](=O)[O-])c1; assay: purified protein; details: 20 mM sodium citrate, pH 6, 30°C
purified protein [10] = substrate: O=[N+]([O-])c1ccc(O[C@@H]2O[C@H](CO)[C@@H](O[C@@H]3O[C@H](CO)[C@@H](O[C@@H]4O[C@H](CO)[C@@H](O)[C@H](O)[C@H]4O)[C@H](O)[C@H]3O)[C@H](O)[C@H]2O)c([N+](=O)[O-])c1; assay: purified protein; details: 20 mM sodium citrate, pH 6, 30°C

OC[C@H]1O[C@@H](O[C@@H]2[C@@H](O)[C@H](O[C@H]3[C@H](O)[C@@H](O)[C@H](O[C@H]4[C@H](O)[C@@H](O)C(O)O[C@@H]4CO)O[C@@H]3CO)O[C@H](CO)[C@H]2O)[C@H](O)[C@@H](O)[C@@H]1O (stereo partly drawn) [G3GGG, β-D-Glcp-(1,3)-β-D-Glcp-(1,4)-β-D-Glcp-(1,4)-β-D-Glcp]
X-ray crystallography, 1.65 Å (VvEG16 [1]): presence of the α-anomer of G3GGG in the negative subsites

OC[C@H]1OC(O)[C@H](O)[C@@H](O)[C@@H]1O[C@@H]1O[C@H](CO[C@H]2OC[C@@H](O)[C@H](O)[C@H]2O)[C@@H](O[C@@H]2O[C@H](CO[C@H]3OC[C@@H](O)[C@H](O)[C@H]3O)[C@@H](O[C@@H]3O[C@H](CO[C@H]4OC[C@@H](O)[C@H](O)[C@H]4O)[C@@H](O)[C@H](O)[C@H]3O)[C@H](O)[C@H]2O)[C@H](O)[C@H]1O (stereo partly drawn) [XXXG]
X-ray crystallography, 1.79 Å (VvEG16 [2]): Chain A additionally contained an apparent XXXG moiety in the negative subsites | X-ray crystallography, 1.59 Å (VvEG16 [3]): Fortuitous crystallization of this variant in complex with the heptasaccharide XXXG in the negative subsites

B1: VvEG16 (Vitis vinifera) (protein)
chain: MADPSLHHEAQPLKFIAVDYCPESCTHSPESSTITLTFDHRGGSRWRSTTRFQYGTFSSLIQCPKGNTSGLNFNIYLSSLEGDKSQDEIDFEFLGKDKRIVQTNYYTAGTGNREAIHDLGFDCSDGFHEYVIKWGPDLIQWLIDGKVIRSVVRADGEGFPQKPMFLYASVWDASYIDEGRWTGPYVGCDAPYICLYKNVNVPVGTAVE
Km [4]: 800 ± 100 µM | kcat [4]: 0.0163 ± 0.0005 s⁻¹ | kcat/Km [4]: 20 M⁻¹ s⁻¹ | Km [5]: 1100 ± 300 µM | kcat [5]: 0.2 ± 0.00833 s⁻¹ | kcat/Km [5]: 180 M⁻¹ s⁻¹

B2: VvEG16 (Vitis vinifera; DEL151-151) (protein)
chain: MADPSLHHEAQPLKFIAVDYCPESCTHSPESSTITLTFDHRGGSRWRSTTRFQYGTFSSLIQCPKGNTSGLNFNIYLSSLEGDKSQDEIDFEFLGKDKRIVQTNYYTAGTGNREAIHDLGFDCSDGFHEYVIKWGPDLIQWLIDGKVIRSVRADGEGFPQKPMFLYASVWDASYIDEGRWTGPYVGCDAPYICLYKNVNVPVGTAVE
Km [6]: 3500 ± 400 µM | kcat [6]: 0.0075 ± 0.000333 s⁻¹ | kcat/Km [6]: 2.1 M⁻¹ s⁻¹ | Km [4]: 1100 ± 100 µM | kcat [4]: 0.0172 ± 0.000667 s⁻¹ | kcat/Km [4]: 16 M⁻¹ s⁻¹ | Km [7]: 5900 ± 600 µM | kcat [7]: 0.000383 ± 3.33e-05 s⁻¹ | kcat/Km [7]: 0.065 M⁻¹ s⁻¹ | Km [8]: 2800 ± 200 µM | kcat [8]: 0.0025 ± 0.0001 s⁻¹ | kcat/Km [8]: 0.9 M⁻¹ s⁻¹ | Km (purified protein [9]): 2000 ± 200 µM | kcat (purified protein [9]): 0.333 ± 0.0167 s⁻¹ | kcat/Km (purified protein [9]): 170 M⁻¹ s⁻¹ | Km (purified protein [10]): 800 ± 60 µM | kcat (purified protein [10]): 1.58 ± 0.0333 s⁻¹ | kcat/Km (purified protein [10]): 2000 M⁻¹ s⁻¹

Reference: publication PMC5315667 (The Plant journal : for cell and molecular biology, 2017)
